According to the DeepSol protein solubility set:

test: soluble on expression in E. coli; label from the status in PepcDB or PDB records

| Sequence | soluble on expression in E. coli |
| --- | --- |
| MTSTSFATIELLHDPRGFATLWLNRADKNNAFNAQMIRELILALDQVQGNAGLRFLLIRGRGRHFSAGADLAWMQQAADLDYNTNLDDARELAELMYNLARLKIPTLAVVQGAAFGGALGLISCCDMAIAAEDAQFCLSEVRIGLAPAVISPFVVQAIGERATRRYALTAERFDGRQARHIGLIAECYPVADLEHQTLGWIDNLLLNSPQAMRISKELLREVGSGELTPALRRYCESAIARIRTSAEGQEGLRAFLQKRTPGWQQRDDEPAALEDRQKDSQR | not soluble |
| MLPETTTLQPLPSVTTIMNEPPARSPMEDYYLFNQFQYNQNPYVYPPQPVYYNTWQDASTHHFDPFQSYQIPSPYEQPIQSSMCTTPLQPLEDSRIIFDESLTKNENEQKSFVEQDSSYESSGNRFGSQKGKKIAKVIRDACCSHCSTTTTTLWRKNDEGNLECNACNLYYRHNKVKRPLSLCKQKPTTRKRRQAKKE | not soluble |
| MQRGLLVLHASAIAAAGKGAIFMGDKGAGKSTTASALIRAGHELLTDDVVALDLARPDAPMIVAGFPQIKLAADAAAAISLGRAEVRPQVHPAIEKMQHRLHGAFSGGMVPATRIYVLERGLEHHHHHH | not soluble |
| MKRALGVSVYPDHSDINQDKAYLKKASECGFTRIFMSMLEVTDGKEAVQKKFKELISYAKNLGFETILDVVPSIFDELEISYDDLTFFSELGADGIRLDTGFDGNKEAMLTFNPFGVAIELNMSNDVAYLDNILTYEANRPFLYGCHNFYPQAGTALPYDFFEKCSIRFKKEGIRTAAFISSQVGEIGPWDVNDGLPTLEMHRQLPVTVQAKHLFATNLIDDVVIGNAYASNEELEALGQLNRYQTELTIVFEEATSEIEKEIVTKNQHFRRGDITQQMIRSTEVRKKYKNEVNPPHDNQAMLQPGDVVVGNDAFGKYKNELQVVLEPHQDSRKNRVGRIIEEELVLLEFIKPWTKFRFIEK | not soluble |
| MGSDKIHHHHHHMNAQEERSRDWVSIRRPFAKAGLETMTARYIQQSFKPHAHDEYVIGIIEGGVHSVWCRGIHHNMPSGTVVTMHPGDVHYGNAAIAEGWKQRMIYISENEIGKFISDIAGGDKFLLPDFKQTFHDRPDLAHSFAQFHEVLHSSPLALARDVALDSIMRVTIGALSPDFVKAKDAKQPSGRIADAVEFLHNRIEDDVTLDELCDVAGLRRRQTIEAFKRCTGLPPHAYHVIQKVKAVKTMLRDGFSATEAAARAGFADQSHMTRHFVGVVGMTPGAYALDCQKKY | not soluble |
| MGSDKIHHHHHHVKRRLNPLEAYLVVMSNADRAGGLVLAATPKMKQEHHIKTGSRMYELPTWDKRIIIAPPRMKLYLKVNAMIQAIFRRYVPAEFIHVYSIDECFLDITGSHLLFGSTEEIVRKIQRDILEELRLYVTVGIGDNPLLAKLALDNVAKNRDDGIAEWRYEDVPETIWKIRHLDDVCGIGRRTAIRLQKMGIFNMYQLSQTPPQVLKNAMGVVGEQLYYHAHGIDYSLLNEKYVPVSKSYGKSQILEKDYHIPAEVEIVIREMVEEVAMRLRQNHVDTEVIHLSIGYSKYSIKKGFSHQAKIPSTSSSHALIPYFLQLFRRYDEREPVRSIAISCGKLTLKTGLQLNLFEDATRTLNHEQLEVTVDKIRTRYGFKSLMHASSLLNGATGLKRSEMVGGHKG | not soluble |
| MGSDKIHHHHHHMENQPNTRSMIFTLYGDYIRHYGNVIWIGSLIRFLQEFGHNEQSVRAAVSRMSKQGWIQSEKKGNKSYYSLTDQGRKRMAEAAQRIYKLEAPSWDEKWRLLIYSIPEEKRSLRDELRKELVWSGFGLLANSCWITPNPLEEQVETLIEKYEISPYVHFFCADYRGMGEPKTLIEKCWDLDEINEKYLAFIQKYSQKYVIDKNKIEKGEMSDGACFVERTLLVHEYRKFLFIDPGLPQELLPEKWLGDSAAHLFADYYRTLAEPARRFFESVFAEGNSLVKKDKEYNFLDHPFMSESQS | not soluble |
| HMIFAKGHGTQNDFVLLPDVDAELVLTAARVAALCDRRKGLGADGVLRVTTAGAAQAVGVLDSLPEGVRVTDWYMDYRNADGSAAQMCGNGVRVFAHYLRASGLEVRDEFVVGSLAGPRPVTCHHVEAAYADVSVDMGKANRLGAGEAVVGGRRFHGLAVDVGNPHLACVDSQLTVDGLAALDVGAPVSFDGAQFPDGVNVEVLTAPVDGAVWMRVHERGVGETRSCGTGTVAAAVAALAAVGSPTGTLTVHVPGGEVVVTVTDATSFLRGPSVLVARGDLADDWWNAMG | soluble |
| MSDANPVFADYFKSWYGTYKIPGKSRTTVVRYETIYKKLNAYYGKAKLAKVTRKSYQIFMNEYGKKHAKDTVYKTNGSIRSCVRDGVADGIIQKDFTQKINLTWNLEHHHHHH | not soluble |
| GSSDVQYTEVQVSSAESHKDLGKKDTETVYSEVRKAVPDAVESRYSRTEGSLDGT | soluble |
| MSLTTAHNIDLPTVLAERLTTAHPDVLRELLATFIHTLMGAEADALCGAGYGERSTERTNSRNGYRHRQFDTRAGSLDLAIPKLRHGSYFPDWLLERRKRAERALTTVVATCYLLGVSTRRMDKLVETLGITSLSKSQVSVMAKELDAAVEAFRTRPLDAGPYTFVAADALVLKVREGGRVVNVHALIAVGVNAEGHREILGIDVSTAEDGAGWLTFWRSLTARGLSGVKLVTSDAHAGLVAAIGATLPGAAWQRCRTHYTTNLMAVTPKSSWPWVRTLLHSVFDQPDAESVAAQYDRIIEALADKLPKVADHLEEARADLLAFTAFPKQIWRQIWSNNPLSVNRPSGDTVQAAAEGHHHHHH | soluble |
| MGSDKIHHHHHHMSDKTDSSQGKSEPESSENNNDKTSVDNSVKSPLTIAISKNTKILALFAIACTLAVSLVSELTKDRIKVQEQQQLLRTLHSIIEPSRYDNDIANDCIMMSAPELGSNKVKTAYIARKAGQVVAVAITSTAPQGYNGNIDFIMAINNDGSVSGVRVLKHQETPGLGDKIEIRKSDWIKSFTGKRILSEDDSRWAVTKDNGMFDQFTGATITPRAVVKGVKSTLNYFNQHKGSLIPRPNACGEALSTTKSISPISEAANEQ | not soluble |
| MGHHHHHHSHDHYGCKQCSSLRSIQNLNSLVDKTSWIPSSVAEALGIVPLQYVFVMTFTLDDGTGVLEAYLMDSDKFFQIPASEVLMDDDLQKSVDMIMDMFCPPGIKIDAYPWLECFIKSYNVTNGTDNQICYQIFDTTVAEDVI | not soluble |
| MATAAVTDDIEEGARKAPALIRYLAEGEYVTRRYVSQGAEMNTGEYADYECVVRDGMPIRDHFTLDVHGFALGRHRSAVADFHDKPTVDALYLDEVEELVTRLCGAARTAAQGWMIRTSADLTERAKQKVQGYQHSGGIQPPAGEAHVDYNEVTGRRAAARVYADRFPDGPGYKRYICFSLWRTFSPGPQDWPLAVCDGRTVRDEETASNTLFVVDEFPVGDALTAPVEGEDQMIAATIFRHRDRHRWWYFSNMAADDVLLFKFQDSDHSVTWRCPHTAFHDTSLPDAKTRSSIEVRCIAFFELEHHHHHH | soluble |
| MGSDKIHHHHHHMAATFLDIAITPDVMDVQHEMGSDSLWQTPRSRRQADRFGDSEAGMIATRDSFYLATVSQSGWPYIQHRGGPPGFLHLLDDITLAMADFGGNRQYITTGNLRGSDRACLFLMDYPRRARLKIYATVEVLAAEDHPQLLAQVAPANYRARIERLFLFHLQAFDWNCPQHITPRYSAQQVAEYSQNLQQRIHDLEQENQRLQQQLARRGE | not soluble |
| MGKKKNSNKSAAAAPAVKHNDRWSSIELGEAKSAAVSHYKEPSKEPKFVHPAKLEKVKRIHDGLNIDRVLSHGPVPKQNGGTKRKHVEVTTQKLENKKPKVEVKKEDEKSKNKKMKNQNKHTALVQNETSTRSTYFVEEPDNENKVTLISNGREIAFKKTEVVESDDEQMIGLDSDEELEDEDETDIDEDEMMIDPKDIERYINFESVEDEEDMEDEEIEDEEFEDEEFEDEEEEADEQEEEEEDVSDEESVVSEMDADSDDEGFIAGKDREAHVISKDKFTRNAPAVDFDKFPFTDEDSVVTSSRAFGFMISPCDVQTFFDKFYQSNVLVVRRKQPTYFGNLFSTARLGELLEKNHLEYGRNINIAQYKNGVRTTLNGQGRAYPQIVKQHLHNMCSVQLVNPQTYDDRIWYLCEVIQEQFGCFVGANTYLTPAGSSGFAPHWDEIDAFLLQVEGRKYWRVWAPESAEEELPLESSDNFTEDDMKGREPVFEGWIEKGDMIYIPRGYIHQARTDSKVHSLHVTVSTGRQWSFANLMEKVVPEAIGVLTDTRHKLRRGLPTGLFDMGGVIDLDYSQEDHFVEKFKMVVDRHMSMLRNLVADQLLESSVDSLAKEFMKQALPPRLTEQEKKLSVLGSSTNLLGDDLVDFTARTKVRLIRRHTQRLLMESEDACFISHRINNSRLFEGRPEQIVEYPISGIDAYRVLSNSYPEWRTLYEIFSLRETKTKSRKENLAAIQLLFQIGVLLVKN | not soluble |
| MIMGLENLKPAKGSVKKIKRVGRGQGSGMGKTATRGGKGQTARTGYKAKRGFEGGQQPLQRRLPKIGFRTKDSHIYSINVEKNEAIKNLEEITFSSLRALHHFPLYIEGVKLIGKDAKNLASKIKDERIKTSGQKLEHHHHHH | soluble |
| MGSDKIHHHHHHMTVLYKGSLKQNNDPFHVTLLSKEHIEQILFLQNVVVEGLEDKSRLQPLSQEEFQYILEGNGMMIGAFIKNELIAFRALLVPPIDDEHLGLDIGLPESELHRVIYQEISNVHPNCRGNGMQKILATVIMDELQKENGKYDYVCCTVAPFNIPSLKDKFSQGMEIAALKEKYGGSMRYVFVKELREDKEKDWTEIKSVPMNNAGGQQALLSEGYRGYEMEKVDEDFVVKFGR | not soluble |
| MGSDKIHHHHHHMIGNRNSTSLEIAMTEIDDITGFIPQPGPIALVLGATGGVGGAVARALAGRGYHVRALHRDAARMAAKQKERQPALEPVLEWVQGDAMNRDDVIYAAKDASVILHGVNPPGYRNWGTLVLPMIDNTIAAARASGACILMPGTIYNYGPDAFPLLNEESPQHPRTVKGEIRVELERRLEQAAGEGVRVILVRAGDFFGPEAGNNWFAQGLITPGKPVTQVNLPGKPGVSHSWAYLPDVAETFIRLLERVPDMPAFARFHMQGHVDTDGYAMAQAIQRVSGSDSVRFKRFAWWMVPLLSPILPVFRELLEMRYLWREPIALDNRRLVEVLGEEPRTRLDVAVATTLKSLKCLQTSAVHPDGSRSMASETAPQ | not soluble |
| MKDNEQKAGSVADQKNKIRERYKGVSIDELDVIPALPQEDIFAVENEQRVAVYARVSTDDPRQTSSYELQKNHYHDVISKSPNWKLVQIYADEGISGTSLQHRDQFKLMIEDCKKGEIDLIVTKSVSRFARNVVDCIGYVRELLALPHPVGVFFETERLNTFDPKSEMVLSFMATLAQEESHTKSEIMNASIEMRFRRGIFLTPTLLGYDHDEDGNLVVNEGEAKIVRLIFMMYLNGCTCQEIADTMTELGCETKKGNTVWSPGSILQILQNERHCGDVLARKTYTPNYLNHKSKKNMQNRPQYRKRNHHEAIISRDDFIAVQRLISNAKYGNKGILPELKVISNGVLKGFVSINPRWAGFKENDYISASLSVYDQMEQLSPSASSVEVQSGDFDLRGYEIARSQFFDGTDRITVTFSLNDIKFSTAAVRKLNSTLVELLLHPNKHLFAVRTASQAHRNAMQWAKKRGELSVPRAVSGTAFMPTVYALLGWNTDCRYRITGIRRGNGNDAVLLFNLEETEIFIPSDVIDEQQTSDARTDVKPLEHHHHHH | soluble |
